Results taken from publication PMC3082577.

What was measured:
Conditions in all cases: glycan lost; control: wild type
[1] = whole cell patch clamp, inactivating current type, +40 mV
[2] = whole cell patch clamp, noninactivating current type
[3] = whole cell patch clamp, inactivating current type
[4] = whole cell patch clamp, noninactivating current type, +40 mV
[5] = train of five +40 mV pulses, whole cell
[6] = Western blot of purified Kv3.1
[7] = whole cell patch clamp, current pattern classification
[8] = whole cell patch clamp, 2 s pulse, +40 mV

B1: Kv3.1: N220Q/N229Q (protein)
parent chain: MGQGDESERIVINVGGTRHQTYRSTLRTLPGTRLAWLAEPDAHSHFDYDPRADEFFFDRHPGVFAHILNYYRTGKLHCPADVCGPLYEEELAFWGIDETDVEPCCWMTYRQHRDAEEALDSFGGAPLDNSADDADADGPGDSGDGEDELEMTKRLALSDSPDGRPGGFWRRWQPRIWALFEDPYSSRYARYVAFASLFFILVSITTFCLETHERFNPIVNKTEIENVRNGTQVRYYREAETEAFLTYIEGVCVVWFTFEFLMRVVFCPNKVEFIKNSLNIIDFVAILPFYLEVGLSGLSSKAAKDVLGFLRVVRFVRILRIFKLTRHFVGLRVLGHTLRASTNEFLLLIIFLALGVLIFATMIYYAERIGAQPNDPSASEHTHFKNIPIGFWWAVVTMTTLGYGDMYPQTWSGMLVGALCALAGVLTIAMPVPVIVNNFGMYYSLAMAKQKLPKKKKKHIPRPPQLGSPNYCKSVVNSPHHSTQSDTCPLAQEEILEINRADSKLNGEVAKAALANEDCPHIDQALTPDEGLPFTRSGTRERYGPCFLLSTGEYACPPGGGMRKDLCKESPVIAKYMPTEAVRVT
[1]
  other: channel current activation time constant, other: τon: increases, 7.5±0.8 vs 4.0±0.3
  other: channel current rise time, other: rise time: increases, 15.9±1.5 vs 8.6±0.5
[2]
  other: channel current deactivation time constant, other: τoff: increases, 5.6±0.2 vs 3.6±0.1
  other: channel current, G-V slope factor, other: dV: no change, 18.7±0.5 vs 22.6±0.4
  other: channel current, voltage of half activation, other: V0.5: no change, 22.3±0.4 vs 28.1±0.7
[3]
  other: channel current deactivation time constant, other: τoff: increases, 6.0±0.3 vs 4.1±0.2
  other: channel current, G-V slope factor, other: dV: no change, 9.6±0.3 vs 10.5±0.5
  other: channel current, voltage of half activation, other: V0.5: no change, 8.1±0.6 vs 10.1±0.7
[4]
  other: channel current activation time constant, other: τon: increases, 7.4±1.2 vs 1.6±0.2
  other: channel current rise time, other: rise time: increases, 10.2±1.5 vs 3.5±0.2
[5]
  other: peak current remaining after repetitive depolarization: decreases
[6]
  expression_or_secretion: no change
[7]
  other: share of inactivating whole cell current type, other: % inactivating current type: increases, 68% vs 36%
[8]
  other: channel current remaining after 2 s pulse (inactivation), other: % current remaining: increases, 62.3±3.1 vs 51.0±2.3

B2: Kv3.1: N220Q (protein)
parent chain: B1 parent chain
[1]
  other: channel current activation time constant, other: τon: no change, 5.3±1.0 vs 4.0±0.3
  other: channel current rise time, other: rise time: increases, 10.6±0.9 vs 8.6±0.5
[2]
  other: channel current deactivation time constant, other: τoff: no change, 4.0±0.3 vs 3.6±0.1
  other: channel current, G-V slope factor, other: dV: no change, 19.8±0.6 vs 22.6±0.4
  other: channel current, voltage of half activation, other: V0.5: no change, 30.7±0.6 vs 28.1±0.7
[3]
  other: channel current deactivation time constant, other: τoff: no change, 4.7±0.4 vs 4.1±0.2
  other: channel current, G-V slope factor, other: dV: no change, 9.9±0.4 vs 10.5±0.5
  other: channel current, voltage of half activation, other: V0.5: no change, 9.2±0.8 vs 10.1±0.7
[4]
  other: channel current activation time constant, other: τon: no change, 1.4±0.4 vs 1.6±0.2
  other: channel current rise time, other: rise time: no change, 3.2±0.4 vs 3.5±0.2
[6]
  expression_or_secretion: no change
[7]
  other: share of inactivating whole cell current type, other: % inactivating current type: increases, 65% vs 36%
[8]
  other: channel current remaining after 2 s pulse (inactivation), other: % current remaining: increases, 60.2±2.7 vs 51.0±2.3

B3: Kv3.1: N229Q (protein)
parent chain: B1 parent chain
[1]
  other: channel current activation time constant, other: τon: increases, 6.6±0.9 vs 4.0±0.3
  other: channel current rise time, other: rise time: increases, 12.7±1.6 vs 8.6±0.5
[2]
  other: channel current deactivation time constant, other: τoff: no change, 3.9±0.2 vs 3.6±0.1
  other: channel current, G-V slope factor, other: dV: no change, 24.3±0.6 vs 22.6±0.4
  other: channel current, voltage of half activation, other: V0.5: no change, 27.5±0.5 vs 28.1±0.7
[3]
  other: channel current deactivation time constant, other: τoff: increases, 5.1±0.2 vs 4.1±0.2
  other: channel current, G-V slope factor, other: dV: no change, 10.8±0.7 vs 10.5±0.5
  other: channel current, voltage of half activation, other: V0.5: no change, 13.1±0.8 vs 10.1±0.7
[4]
  other: channel current activation time constant, other: τon: no change, 1.2±0.1 vs 1.6±0.2
  other: channel current rise time, other: rise time: no change, 3.1±0.1 vs 3.5±0.2
[6]
  expression_or_secretion: no change
[7]
  other: share of inactivating whole cell current type, other: % inactivating current type: no change, 29% vs 36%
[8]
  other: channel current remaining after 2 s pulse (inactivation), other: % current remaining: increases, 64.8±4.1 vs 51.0±2.3
